Laboratory results reported in paper PMC7091491.

What was measured:
[1] = biological target: G12-insertion ClpX^ΔN single-chain pseudohexamer (E. coli) (UniProt P0A6H1)
[2] = biological target: linker-deletion ClpX^ΔN single-chain pseudohexamer (E. coli) (UniProt P0A6H1)
[3] = biological target: wild-type single-chain ClpX^ΔN pseudohexamer (E. coli) (UniProt P0A6H1)

What does the source list for Arc-st11-ssrA?
KM of Arc-st11-ssrA degradation (0.1 μM ClpX, 0.3 μM ClpP) [1]: 4.1 µM; KM of Arc-st11-ssrA degradation (0.1 μM ClpX, 0.3 μM ClpP); approximate [2]: 20 µM; KM of Arc-st11-ssrA degradation (0.1 μM ClpX, 0.3 μM ClpP) [3]: 2.5 µM
